In patent US20250152742A1, “COMPOSITIONS AND METHODS FOR NEUROLOGICAL DISEASES” (Trames Bio, Inc., priority 2022, published 2025):
Where a chain is given by its changes, count along the chain named. Names may count otherwise.

Tested on: engineered chimeric receptor SEQ ID NO: 33 and its mutants (human α7-nAChR ligand binding domain / human GlyRα1 ion pore domain) in Lenti-X 293T cells
Experiment: YFP fluorescence quenching anion reporter plate reader assay (percent quench, EC50)
Type: cell-based
Settings: for YFP fluorescence quenching using CNL001 (percent quench): receptor named in row; for YFP fluorescence quenching using Facinicline, 30 nM fac: ligand Facinicline 30 nM; for YFP fluorescence quenching using Facinicline, 300 nM fac: ligand Facinicline 300 nM; for YFP fluorescence quenching using Facinicline, 30 uM fac: ligand Facinicline 30 uM; for YFP fluorescence quenching using TC-6987, 1 uM tc6987: ligand TC-6987 1 uM; for YFP fluorescence quenching using TC-6987, 10 uM tc6987: ligand TC-6987 10 uM; for YFP fluorescence quenching using TC-6987, 500 uM tc6987: ligand TC-6987 500 uM; for YFP fluorescence quenching using Varenicline, 3 nM var: ligand Varenicline 3 nM; for YFP fluorescence quenching using Varenicline, 30 nM var: ligand Varenicline 30 nM; for YFP fluorescence quenching using Varenicline, 300 nM var: ligand Varenicline 300 nM; for YFP fluorescence quenching using Varenicline, 500 nM var: ligand Varenicline 500 nM; for YFP fluorescence quenching using Varenicline, 1 uM var: ligand Varenicline 1 uM
How it was run: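 Percent quench compares mean YFP signal over the final 10 s with the 15 s baseline before ligand, added in iodide-containing extracellular solution (pH 7.2). Cells were LX293T carrying a YFP anion reporter, transiently transfected with the channel construct; plates were preincubated 30 min at 37 °C.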

[1] = 1 nM CNL001, first column so headed
[2] = 1 nM CNL001, second column so headed
[3] = 1 nM brd (TC-5619/Bradanicline)
[4] = 3 nM brd (TC-5619/Bradanicline)
[5] = 10 nM CNL001, first column so headed
[6] = 10 nM CNL001, second column so headed
[7] = 10 nM brd (TC-5619/Bradanicline)
[8] = 30 nM brd (TC-5619/Bradanicline)
[9] = 50 nM CNL001, first column so headed
[10] = 50 nM CNL001, second column so headed
[11] = 100 nM CNL001, first column so headed
[12] = 100 nM CNL001, second column so headed
[13] = 300 nM brd (TC-5619/Bradanicline)
[14] = 1 uM CNL001, first column so headed
[15] = 1 uM CNL001, second column so headed

B1: CODA806: engineered receptor: Y115D, L131Q in SEQ ID NO: 33 (Chemogenic receptor-11) (protein)
chain: MRCSPGGVWLALAASLLHVSLQGEFQRKLYKELVKNYNPLERPVANDSQPLTVYFSLSLLQIMDVDEKNQVLTTNIWLQMSWTDHYLQWNVSEYPGVKTVRFPDGQIWKPDILLDNSADERFDATFHTNVQVNSSGHCQYLPPGIFKSSCPMDLKNFPMDVQTCKLKFGSWSYGGWSLDLQMQEADISGYIPNGEWDLVGIPGKRSERFYECCKEPYPDVTFTVTMRRRMGYYLIQMYIPSLLIVILSWISFWINMDAAPARVGLGITTVLTMTTQSSGSRASLPKVSYVKAIDIWMAVCLLFVFSALLEYAAVNFVSRQHKELLRFRRKRRHHKSPMLNLFQEDEAGEGRFNFSAYGMGPACLQAKDGISVKGANNSNTTNPPPAPSKSPEEMRKLFIQRAKKIDKISRIGFPMAFLIFNMFYWIIYKIVRREDVHNQ
modifications: synthetic sequence of chimeric LGIC
YFP fluorescence quenching using CNL001 (percent quench) [1]: 6.587%
YFP fluorescence quenching using CNL001 (percent quench) [2]: −5.179%
YFP fluorescence quenching using TC-5619/Bradanicline (percent quench) [3]: 0.92%
YFP fluorescence quenching using TC-5619/Bradanicline (percent quench) [4]: −4.65%
YFP fluorescence quenching using CNL001 (percent quench) [5]: −2.366%
YFP fluorescence quenching using CNL001 (percent quench) [6]: −1.272%
YFP fluorescence quenching using TC-5619/Bradanicline (percent quench) [7]: 0.38%
YFP fluorescence quenching using TC-5619/Bradanicline (percent quench) [8]: −8.96%
YFP fluorescence quenching using CNL001 (percent quench) [9]: 2.763%
YFP fluorescence quenching using CNL001 (percent quench) [10]: 1.995%
YFP fluorescence quenching using ABT-126 (percent quench) (50 nM abt (ABT-126)): −1.81%
YFP fluorescence quenching using CNL001 (percent quench) [11]: 3.091%
YFP fluorescence quenching using CNL001 (percent quench) [12]: 1.45%
YFP fluorescence quenching (percent quench) (100 nM CNL002): −10.03%
YFP fluorescence quenching using ABT-126 (percent quench) (100 nM abt (ABT-126)): −2.61%
YFP fluorescence quenching using AZD-0328 (percent quench) (100 nM azd0328): 12.15%
YFP fluorescence quenching using TC-5619/Bradanicline (percent quench) (100 nM brd (TC-5619/Bradanicline)): 12.18%
YFP fluorescence quenching using ABT-126 (percent quench) (300 nM abt (ABT-126)): −3.78%
YFP fluorescence quenching using AZD-0328 (percent quench) (300 nM azd0328): 30.92%
YFP fluorescence quenching using TC-5619/Bradanicline (percent quench) [13]: −0.3%
YFP fluorescence quenching using CNL001 (percent quench) [14]: 7.331%
YFP fluorescence quenching using CNL001 (percent quench) [15]: 9.103%
YFP fluorescence quenching (percent quench) (1 uM CNL002): −3.33%
YFP fluorescence quenching using ABT-126 (percent quench) (1 uM abt (ABT-126)): −2.6%
YFP fluorescence quenching using TC-5619/Bradanicline (percent quench) (1 uM brd (TC-5619/Bradanicline)): 45.47%
YFP fluorescence quenching (percent quench) (10 uM ach (acetylcholine)): 9.47%
YFP fluorescence quenching (percent quench) (30 uM CNL002): 6.96%
YFP fluorescence quenching using AZD-0328 (percent quench) (30 uM azd0328): 68.65%
YFP fluorescence quenching (percent quench) (100 uM ach (acetylcholine)): 6.12%
YFP fluorescence quenching (percent quench) (1 mM ach (acetylcholine)): −1.56%
YFP fluorescence quenching (percent quench) (3 mM ach (acetylcholine)): 17.57%
YFP fluorescence quenching using Facinicline, 30 nM fac: 41.32
YFP fluorescence quenching using Facinicline, 100 nM fac (ligand Facinicline 100 nM): 59.51
YFP fluorescence quenching using Facinicline, 300 nM fac: 74.86
YFP fluorescence quenching using Facinicline, 10 uM fac (ligand Facinicline 10 uM): 78.53
YFP fluorescence quenching using Facinicline, 30 uM fac: 84.45
YFP fluorescence quenching using TC-6987, 1 uM tc6987: 38.83
YFP fluorescence quenching using TC-6987, 10 uM tc6987: 31.59
YFP fluorescence quenching using TC-6987, 500 uM tc6987: 29.83

B2: CODA1025: engineered receptor: R101F, L131G in SEQ ID NO: 33 (protein)
chain: B1 chain with R101F, D115Y, Q131G
modifications: synthetic sequence of chimeric LGIC
YFP fluorescence quenching using CNL001 (percent quench) [1]: −18.527%
YFP fluorescence quenching using CNL001 (percent quench) [2]: −21.577%
YFP fluorescence quenching using TC-5619/Bradanicline (percent quench) [3]: −10.61%
YFP fluorescence quenching using TC-5619/Bradanicline (percent quench) [4]: 2.63%
YFP fluorescence quenching using CNL001 (percent quench) [5]: 14.063%
YFP fluorescence quenching using CNL001 (percent quench) [6]: 49.818%
YFP fluorescence quenching using TC-5619/Bradanicline (percent quench) [7]: 17.71%
YFP fluorescence quenching using TC-6683 (percent quench) (30 nM TC-6683): −1.645%
YFP fluorescence quenching using TC-5619/Bradanicline (percent quench) [8]: 68.48%
YFP fluorescence quenching using CNL001 (percent quench) [9]: 77.765%
YFP fluorescence quenching using CNL001 (percent quench) [10]: 79.23%
YFP fluorescence quenching using ABT-126 (percent quench) (50 nM abt (ABT-126)): −11.53%
YFP fluorescence quenching using CNL001 (percent quench) [11]: 80.544%
YFP fluorescence quenching using CNL001 (percent quench) [12]: 80.695%
YFP fluorescence quenching (percent quench) (100 nM CNL002): 12.48%
YFP fluorescence quenching using ABT-126 (percent quench) (100 nM abt (ABT-126)): −7.61%
YFP fluorescence quenching using AZD-0328 (percent quench) (100 nM azd0328): 6.26%
YFP fluorescence quenching using TC-6683 (percent quench) (300 nM TC-6683): 3.043%
YFP fluorescence quenching using ABT-126 (percent quench) (300 nM abt (ABT-126)): 6.55%
YFP fluorescence quenching using AZD-0328 (percent quench) (300 nM azd0328): 37.98%
YFP fluorescence quenching using TC-5619/Bradanicline (percent quench) [13]: 75.12%
YFP fluorescence quenching using CNL001 (percent quench) [14]: 81.191%
YFP fluorescence quenching using CNL001 (percent quench) [15]: 82.385%
YFP fluorescence quenching (percent quench) (1 uM CNL002): 46.04%
YFP fluorescence quenching using ABT-126 (percent quench) (1 uM abt (ABT-126)): 25.08%
YFP fluorescence quenching using TC-6683 (percent quench) (3 uM TC-6683): 0.082%
YFP fluorescence quenching (percent quench) (10 uM ach (acetylcholine)): 12.57%
YFP fluorescence quenching (percent quench) (30 uM CNL002): 39.82%
YFP fluorescence quenching using TC-6683 (percent quench) (30 uM TC-6683): 2.449%
YFP fluorescence quenching using AZD-0328 (percent quench) (30 uM azd0328): 79.31%
YFP fluorescence quenching (percent quench) (50 uM ach (acetylcholine)): −3.46%
YFP fluorescence quenching using TC-6683 (percent quench) (100 uM TC-6683): 10.437%
YFP fluorescence quenching (percent quench) (100 uM ach (acetylcholine)): 12.65%
YFP fluorescence quenching (percent quench) (300 uM ach (acetylcholine)): −6.96%
YFP fluorescence quenching (percent quench) (500 uM ach (acetylcholine)): −6.77%
YFP fluorescence quenching (percent quench) (1 mM ach (acetylcholine)): 19.42%
YFP fluorescence quenching (percent quench) (3 mM ach (acetylcholine)): 65.06%
YFP fluorescence quenching using Facinicline, 30 nM fac: −8.99
YFP fluorescence quenching using Facinicline, 300 nM fac: 10.21
YFP fluorescence quenching using Facinicline, 30 uM fac: 78.24
YFP fluorescence quenching using TC-6987, 1 uM tc6987: −13.32
YFP fluorescence quenching using TC-6987, 10 uM tc6987: 43.71
YFP fluorescence quenching using TC-6987, 500 uM tc6987: 53.98
YFP fluorescence quenching using Varenicline, 3 nM var (first column): 48.074
YFP fluorescence quenching using Varenicline, 3 nM var (second column): 60.978
YFP fluorescence quenching using Varenicline, 30 nM var (first column): 70.023
YFP fluorescence quenching using Varenicline, 30 nM var (second column): 69.433
YFP fluorescence quenching using Varenicline, 300 nM var (first column): 78.989
YFP fluorescence quenching using Varenicline, 300 nM var (second column): 79.21
YFP fluorescence quenching using Varenicline, 500 nM var (first column): 79.212
YFP fluorescence quenching using Varenicline, 500 nM var (second column): 79.771
YFP fluorescence quenching using Varenicline, 1 uM var (first column): 79.538
YFP fluorescence quenching using Varenicline, 1 uM var (second column): 80.577
